Experimental data reported in patent publication US8389575B2, “Control of enzymatic peracid generation” (E.I. du Pont de Nemours and Company, priority 2008, dated 2013).

Legend:
[1] = Peracetic acid production by Thermotoga maritima MSB8 perhydrolase, control by bicarbonate buffer concentration; type: biochemical; conditions: 100 mM triacetin
Protocol: A cell extract of a transformant expressing perhydrolase from Thermotoga maritima MSB8 (KLP18/pSW207) was prepared by passing a suspension of cell paste (20 wt % wet cell weight) in 0.05 M potassium phosphate buffer (pH 7.0) containing dithiothreitol (1 mM) twice through a French press having a working pressure of 16,000 psi (˜110 MPa). The crude extract was then centrifuged at 20,000×g to remove cellular debris, producing a clarified cell extract that was assayed for total soluble protein (Bicinchoninic Acid Kit for Protein Determination, Sigma Aldrich catalog #BCA1-KT). The clarified extract was heated for 20 min at 75° C., followed immediately by cooling in an ice/water bath. The resulting mixture was centrifuged to remove precipitated protein, and the supernatant collected and assayed for total soluble protein as before. […] The supernatant was frozen in dry ice and stored at −80° C.
Reactions (2 mL total volume) containing triacetin, hydrogen peroxide and heat-treated, centrifuged cell extract supernatant (prepared as described above) were run at 25° C. using sodium bicarbonate buffer concentrations listed in Tables 9 and 10. A control reaction for each reaction condition was run to determine the concentration of peracetic acid produced by chemical perhydrolysis of triacetin by hydrogen peroxide in the absence of added extract protein. Determination of the concentration of peracetic acid in the reaction mixtures was performed according to the method described by Karst et al., supra. The peracetic acid concentrations produced in 1 min, 5 min and 30 min using either 250 mM or 100 mM hydrogen peroxide are listed in Table 9 and Table 10.

[2] = Peracetic acid production and reaction pH over time, Thermotoga maritima MSB8 perhydrolase, selection of buffer, reactant and perhydrolase concentrations; type: biochemical; conditions: triacetin 100 mM
Protocol: Reactions (10 mL total volume) containing triacetin (100 mM), hydrogen peroxide (100 mM or 250 mM) and heat-treated, centrifuged cell extract supernatant (35 to 100 μg total heat-treated extract protein/mL, prepared as described in Example 13) prepared from an E. coli transformant expressing perhydrolase from Thermotoga maritima MSB8 (KLP18/pSW207) in sodium citrate (50 mM, pH 6.5) buffer, or in sodium bicarbonate buffer (1 mM to 5 mM, initial pH as indicated in Table 12), or in water without added buffer were run at 25° C. A control reaction for each reaction condition was run to determine the concentration of peracetic acid produced by chemical perhydrolysis of triacetin by hydrogen peroxide in the absence of added extract protein. Determination of the concentration of peracetic acid in the reaction mixtures was performed according to the method described by Karst et al., supra. The peracetic acid concentration produced at predetermined reaction times is listed in Table 11, and the corresponding reaction pH at each reaction time is listed in Table 12.

[3] = bicarbonate, 1 mM, H2O2 100 mM, total protein 75 μg/mL
[4] = bicarbonate, 1 mM, H2O2 100 mM, total protein 100 μg/mL
[5] = bicarbonate, 1 mM, H2O2 250 mM, total protein 35 μg/mL
[6] = bicarbonate, 1 mM, H2O2 250 mM, total protein 50 μg/mL
[7] = bicarbonate, 2.5 mM, H2O2 100 mM, total protein 50 μg/mL
[8] = bicarbonate, 5 mM, H2O2 100 mM, total protein 50 μg/mL
[9] = citrate, 50 mM, H2O2 100 mM, total protein 50 μg/mL
[10] = water (no buffer), H2O2 250 mM, total protein 75 μg/mL
[11] = water (no buffer), H2O2 250 mM, total protein 100 μg/mL

PAA (ppm), 1 min ([1]; NaHCO3 0 mM, initial pH 5.0, 1 min, 100 mM H2O2, 50 μg/mL heated extract total protein): 125 ppm
PAA (ppm), 1 min ([1]; NaHCO3 0 mM, initial pH 5.0, 1 min, 250 mM H2O2, 50 μg/mL heated extract total protein): 233 ppm
PAA (ppm), 5 min ([1]; NaHCO3 0 mM, initial pH 5.0, 5 min, 100 mM H2O2, 50 μg/mL heated extract total protein): 121 ppm
PAA (ppm), 5 min ([1]; NaHCO3 0 mM, initial pH 5.0, 5 min, 250 mM H2O2, 50 μg/mL heated extract total protein): 290 ppm
PAA (ppm), 30 min ([1]; NaHCO3 0 mM, initial pH 5.0, 30 min, 100 mM H2O2, 50 μg/mL heated extract total protein): 105 ppm
PAA (ppm), 30 min ([1]; NaHCO3 0 mM, initial pH 5.0, 30 min, 250 mM H2O2, 50 μg/mL heated extract total protein): 289 ppm
PAA (ppm), 1 min ([1]; NaHCO3 1.0 mM, initial pH 6.0, 1 min, 100 mM H2O2, 50 μg/mL heated extract total protein): 238 ppm
PAA (ppm), 1 min ([1]; NaHCO3 1.0 mM, initial pH 6.0, 1 min, 250 mM H2O2, 50 μg/mL heated extract total protein): 690 ppm
PAA (ppm), 5 min ([1]; NaHCO3 1.0 mM, initial pH 6.0, 5 min, 100 mM H2O2, 50 μg/mL heated extract total protein): 388 ppm
PAA (ppm), 5 min ([1]; NaHCO3 1.0 mM, initial pH 6.0, 5 min, 250 mM H2O2, 50 μg/mL heated extract total protein): 980 ppm
PAA (ppm), 30 min ([1]; NaHCO3 1.0 mM, initial pH 6.0, 30 min, 100 mM H2O2, 50 μg/mL heated extract total protein): 361 ppm
PAA (ppm), 30 min ([1]; NaHCO3 1.0 mM, initial pH 6.0, 30 min, 250 mM H2O2, 50 μg/mL heated extract total protein): 981 ppm
PAA (ppm), 1 min ([1]; NaHCO3 2.5 mM, initial pH 6.5, 1 min, 100 mM H2O2, 50 μg/mL heated extract total protein): 319 ppm
PAA (ppm), 1 min ([1]; NaHCO3 2.5 mM, initial pH 6.5, 1 min, 250 mM H2O2, 50 μg/mL heated extract total protein): 817 ppm
PAA (ppm), 5 min ([1]; NaHCO3 2.5 mM, initial pH 6.5, 5 min, 100 mM H2O2, 50 μg/mL heated extract total protein): 755 ppm
PAA (ppm), 5 min ([1]; NaHCO3 2.5 mM, initial pH 6.5, 5 min, 250 mM H2O2, 50 μg/mL heated extract total protein): 1758 ppm
PAA (ppm), 30 min ([1]; NaHCO3 2.5 mM, initial pH 6.5, 30 min, 100 mM H2O2, 50 μg/mL heated extract total protein): 710 ppm
PAA (ppm), 30 min ([1]; NaHCO3 2.5 mM, initial pH 6.5, 30 min, 250 mM H2O2, 50 μg/mL heated extract total protein): 1748 ppm
PAA (ppm), 1 min ([1]; NaHCO3 5.0 mM, initial pH 6.5, 1 min, 100 mM H2O2, 50 μg/mL heated extract total protein): 330 ppm
PAA (ppm), 1 min ([1]; NaHCO3 5.0 mM, initial pH 6.5, 1 min, 250 mM H2O2, 50 μg/mL heated extract total protein): 735 ppm
PAA (ppm), 5 min ([1]; NaHCO3 5.0 mM, initial pH 6.5, 5 min, 100 mM H2O2, 50 μg/mL heated extract total protein): 972 ppm
PAA (ppm), 5 min ([1]; NaHCO3 5.0 mM, initial pH 6.5, 5 min, 250 mM H2O2, 50 μg/mL heated extract total protein): 1825 ppm
PAA (ppm), 30 min ([1]; NaHCO3 5.0 mM, initial pH 6.5, 30 min, 100 mM H2O2, 50 μg/mL heated extract total protein): 1323 ppm
PAA (ppm), 30 min ([1]; NaHCO3 5.0 mM, initial pH 6.5, 30 min, 250 mM H2O2, 50 μg/mL heated extract total protein): 2222 ppm
PAA (ppm), 1 min ([1]; NaHCO3 10 mM, initial pH 7.0, 1 min, 250 mM H2O2, 50 μg/mL heated extract total protein): 804 ppm
PAA (ppm), 5 min ([1]; NaHCO3 10 mM, initial pH 7.0, 5 min, 250 mM H2O2, 50 μg/mL heated extract total protein): 1951 ppm
PAA (ppm), 30 min ([1]; NaHCO3 10 mM, initial pH 7.0, 30 min, 250 mM H2O2, 50 μg/mL heated extract total protein): 2698 ppm
PAA (ppm), 1 min ([1]; NaHCO3 10 mM, initial pH 8.1, 1 min, 100 mM H2O2, 50 μg/mL heated extract total protein): 407 ppm
PAA (ppm), 5 min ([1]; NaHCO3 10 mM, initial pH 8.1, 5 min, 100 mM H2O2, 50 μg/mL heated extract total protein): 1075 ppm
PAA (ppm), 30 min ([1]; NaHCO3 10 mM, initial pH 8.1, 30 min, 100 mM H2O2, 50 μg/mL heated extract total protein): 1763 ppm
PAA (ppm), 1 min ([1]; NaHCO3 25 mM, initial pH 8.1, 1 min, 100 mM H2O2, 50 μg/mL heated extract total protein): 465 ppm
PAA (ppm), 1 min ([1]; NaHCO3 25 mM, initial pH 8.1, 1 min, 250 mM H2O2, 50 μg/mL heated extract total protein): 848 ppm
PAA (ppm), 5 min ([1]; NaHCO3 25 mM, initial pH 8.1, 5 min, 100 mM H2O2, 50 μg/mL heated extract total protein): 1369 ppm
PAA (ppm), 5 min ([1]; NaHCO3 25 mM, initial pH 8.1, 5 min, 250 mM H2O2, 50 μg/mL heated extract total protein): 2342 ppm
PAA (ppm), 30 min ([1]; NaHCO3 25 mM, initial pH 8.1, 30 min, 100 mM H2O2, 50 μg/mL heated extract total protein): 2217 ppm
PAA (ppm), 30 min ([1]; NaHCO3 25 mM, initial pH 8.1, 30 min, 250 mM H2O2, 50 μg/mL heated extract total protein): 3251 ppm
PAA (ppm), 1 min [2, 3]: 434 ppm
PAA (ppm), 5 min [2, 3]: 494 ppm
PAA (ppm), 30 min [2, 3]: 608 ppm
PAA (ppm), 2 h [2, 3]: 673 ppm
PAA (ppm), 18 h [2, 3]: 576 ppm
PAA (ppm), 1 min [2, 4]: 449 ppm
PAA (ppm), 5 min [2, 4]: 667 ppm
PAA (ppm), 30 min [2, 4]: 643 ppm
PAA (ppm), 2 h [2, 4]: 703 ppm
PAA (ppm), 18 h [2, 4]: 613 ppm
PAA (ppm), 1 min [2, 5]: 467 ppm
PAA (ppm), 5 min [2, 5]: 1047 ppm
PAA (ppm), 30 min [2, 5]: 1041 ppm
PAA (ppm), 2 h [2, 5]: 1014 ppm
PAA (ppm), 18 h [2, 5]: 917 ppm
PAA (ppm), 1 min [2, 6]: 624 ppm
PAA (ppm), 5 min [2, 6]: 1060 ppm
PAA (ppm), 30 min [2, 6]: 1090 ppm
PAA (ppm), 2 h [2, 6]: 1063 ppm
PAA (ppm), 18 h [2, 6]: 1021 ppm
PAA (ppm), 1 min [2, 7]: 256 ppm
PAA (ppm), 5 min [2, 7]: 722 ppm
PAA (ppm), 30 min [2, 7]: 976 ppm
PAA (ppm), 2 h [2, 7]: 887 ppm
PAA (ppm), 18 h [2, 7]: 855 ppm
PAA (ppm), 1 min [2, 8]: 410 ppm
PAA (ppm), 5 min [2, 8]: 1088 ppm
PAA (ppm), 30 min [2, 8]: 1496 ppm
PAA (ppm), 2 h [2, 8]: 1423 ppm
PAA (ppm), 18 h [2, 8]: 1419 ppm
PAA (ppm), 1 min [2, 9]: 409 ppm
PAA (ppm), 5 min [2, 9]: 892 ppm
PAA (ppm), 30 min [2, 9]: 2001 ppm
PAA (ppm), 2 h [2, 9]: 2254 ppm
PAA (ppm), 18 h [2, 9]: 1937 ppm
PAA (ppm), 1 min [2, 10]: 512 ppm
PAA (ppm), 5 min [2, 10]: 535 ppm
PAA (ppm), 30 min [2, 10]: 533 ppm
PAA (ppm), 2 h [2, 10]: 472 ppm
PAA (ppm), 18 h [2, 10]: 448 ppm
PAA (ppm), 1 min [2, 11]: 576 ppm
PAA (ppm), 5 min [2, 11]: 668 ppm
PAA (ppm), 30 min [2, 11]: 654 ppm
PAA (ppm), 2 h [2, 11]: 618 ppm
PAA (ppm), 18 h [2, 11]: 543 ppm
B1: Thermotoga maritima MSB8 perhydrolase: acetyl xylan esterase with perhydrolase activity from Thermotoga maritima MSB8 (SEQ ID NO: 16), cell extract of E. coli KLP18/pSW207 (protein, listed as Thermotoga maritima)
chain: MAFFDLPLEELKKYRPERYEEKDFDEFWEETLAESEKFPLDPVFERMESHLKTVEAYDVTFSGYRGQRIKGWLLVPKLEEEKLPCVVQYIGYNGGRGFPHDWLFWPSMGYICFVMDTRGQGSGWLKGDTPDYPEGPVDPQYPGFMTRGILDPRTYYYRRVFTDAVRAVEAAASFPQVDQERIVIAGGSQGGGIALAVSALSKKAKALLCDVPFLCHFRRAVQLVDTHPYAEITNFLKTHRDKEEIVFRTLSYFDGVNFAARAKIPALFSVGLMDNICPPSTVFAAYNYYAGPKEIRIYPYNNHEGGGSFQAVEQVKFLKKLFEKG
